Measurements published in patent US20140274782A1, “AFFINITY REAGENTS AND METHODS FOR DETECTION, PURIFICATION, AND PROTEOMIC ANALYSIS OF METHYLATED PROTEINS” (The Board of Trustees of the Leland Stanford Junior …, priority 2013, published 2014).

B1: C22orf28 (protein, UniProt Q9Y3I0 1-505, looked up)
RNA-splicing ligase RtcB …: MSRSYNDELQFLEKINKNCWRIKKGFVPNMQVEGVFYVNDALEKLMFEELRNACRGGGVGGFLPAMKQIGNVAALPGIVHRSIGLPDVHSGYGFAIGNMAAFDMNDPEAVVSPGGVGFDINCGVRLLRTNLDESDVQPVKEQLAQAMFDHIPVGVGSKGVIPMNAKDLEEALEMGVDWSLREGYAWAEDKEHCEEYGRMLQADPNKVSARAKKRGLPQLGTLGAGNHYAEIQVVDEIFNEYAAKKMGIDHKGQVCVMIHSGSRGLGHQVATDALVAMEKAMKRDKIIVNDRQLACARIASPEGQDYLKGMAAAGNYAWVNRSSMTFLTRQAFAKVFNTTPDDLDLHVIYDVSHNIAKVEQHVVDGKERTLLVHRKGSTRAFPPHHPLIAVDYQLTGQPVLIGGTMGTCSYVLTGTEQGMTETFGTTCHGAGRALSRAKSRRNLDFQDVLDKLADMGIAIRVASPKLVMEEAPESYKNVTDVVNTCHDAGISKKAIKLRPIAVIKG
B2: ZC3HAV1L (protein, UniProt Q96H79 2-300, looked up)
Zinc finger CCCH-type …: AEPTVCSFLTKVLCAHGGRMFLKDLRGHVELSEARLRDVLQRAGPERFLLQEVETQEGLGDAEAEAAAGAVGGGGTSAWRVVAVSSVRLCARYQRGECQACDQLHFCRRHMLGKCPNRDCWSTCTLSHDIHTPVNMQVLKSHGLFGLNENQLRILLLQNDPCLLPEVCLLYNKGEALYGYCNLKDKCNKFHVCKSFVKGECKLQTCKRSHQLIHAASLKLLQDQGLNIPSVVNFQIISTYKHMKLHKMLENTDNSSPSTEHSQGLEKQGVHAAGAAEAGPLASVPAQSAKKPCPVSCEK
B3: EEF1D (protein, UniProt P29692 2-281, looked up)
Elongation factor 1-delta: ATNFLAHEKIWFDKFKYDDAERRFYEQMNGPVAGASRQENGASVILRDIARARENIQKSLAGSSGPGASSGTSGDHGELVVRIASLEVENQSLRGVVQELQQAISKLEARLNVLEKSSPGHRATAPQTQHVSPMRQVEPPAKKPATPAEDDEDDDIDLFGSDNEEEDKEAAQLREERLRQYAEKKAKKPALVAKSSILLDVKPWDDETDMAQLEACVRSIQLDGLVWGASKLVPVGYGIRKLQIQCVVEDDKVGTDLLEEEITKFEEHVQSVDIAAFNKI
B4: SNRPA1 (protein, UniProt P09661 2-255, looked up)
U2 small nuclear …: VKLTAELIEQAAQYTNAVRDRELDLRGYKIPVIENLGATLDQFDAIDFSDNEIRKLDGFPLLRRLKTLLVNNNRICRIGEGLDQALPCLTELILTNNSLVELGDLDPLASLKSLTYLSILRNPVTNKKHYRLYVIYKVPQVRVLDFQKVKLKERQEAEKMFKGKRGAQLAKDIARRSKTFNPGAGLPTDKKKGGPSPGDVEAIKNAIANASTLAEVERLKGLLQSGQIPGRERRSGPTDDGEEEMEEDTVTNGS
B5: EIF4E2 (protein, UniProt O60573 1-245, looked up)
Eukaryotic translation …: MNNKFDALKDDDSGDHDQNEENSTQKDGEKEKTERDKNQSSSKRKAVVPGPAEHPLQYNYTFWYSRRTPGRPTSSQSYEQNIKQIGTFASVEQFWRFYSHMVRPGDLTGHSDFHLFKEGIKPMWEDDANKNGGKWIIRLRKGLASRCWENLILAMLGEQFMVGEEICGAVVSVRFQEDIISIWNKTASDQATTARIRDTLRRVLNLPPNTIMEYKTHTDSIKMPGRLGPQRLLFQNLWKPRLNVP
B6: RBM26 (protein, UniProt Q5T8P6 1-1007, looked up)
RNA-binding protein 26: MVSKMIIENFEALKSWLSKTLEPICDADPSALAKYVLALVKKDKSEKELKALCIDQLDVFLQKETQIFVEKLFDAVNTKSYLPPPEQPSSGSLKVEFFPHQEKDIKKEEITKEEEREKKFSRRLNHSPPQSSSRYRENRSRDERKKDDRSRKRDYDRNPPRRDSYRDRYNRRRGRSRSYSRSRSRSWSKERLRERDRDRSRTRSRSRTRSRERDLVKPKYDLDRTDPLENNYTPVSSVPSISSGHYPVPTLSSTITVIAPTHHGNNTTESWSEFHEDQVDHNSYVRPPMPKKRCRDYDEKGFCMRGDMCPFDHGSDPVVVEDVNLPGMLPFPAQPPVVEGPPPPGLPPPPPILTPPPVNLRPPVPPPGPLPPSLPPVTGPPPPLPPLQPSGMDAPPNSATSSVPTVVTTGIHHQPPPAPPSLFTADTYDTDGYNPEAPSITNTSRPMYRHRVHAQRPNLIGLTSGDMDLPPREKPPNKSSMRIVVDSESRKRTIGSGEPGVPTKKTWFDKPNFNRTNSPGFQKKVQFGNENTKLELRKVPPELNNISKLNEHFSRFGTLVNLQVAYNGDPEGALIQFATYEEAKKAISSTEAVLNNRFIKVYWHREGSTQQLQTTSPKVMQPLVQQPILPVVKQSVKERLGPVPSSTIEPAEAQSASSDLPQNVTKLSVKDRLGFVSKPSVSATEKVLSTSTGLTKTVYNPAALKAAQKTLLVSTSAVDNNEAQKKKQEALKLQQDVRKRKQEILEKHIETQKMLISKLEKNKTMKSEDKAEIMKTLEVLTKNITKLKDEVKAASPGRCLPKSIKTKTQMQKELLDTELDLYKKMQAGEEVTELRRKYTELQLEAAKRGILSSGRGRGIHSRGRGAVHGRGRGRGRGRGVPGHAVVDHRPRALEISAFTESDREDLLPHFAQYGEIEDCQIDDSSLHAVITFKTRAEAEAAAVHGARFKGQDLKLAWNKPVTNISAVETEEVEPDEEEFQEESLVDDSLLQDDDEEEEDNESRSWRR

Tests used:
3×MBT domain of L3MBTL1 = experiment: Triple SILAC pull-down, 3xMBT/3xMBTD355N ratio (cytoplasmic, nuclear and chromatin fractions of 293T cells); assay type: binding, human; details: SILAC ratio, pull-down 3xMBT vs 3xMBTD355N; for 3xMBT/D355N UNC Heavy: experiment with UNC0638 in heavy SILAC media; for 3xMBT/D355N UNC Light: experiment with UNC0638 in light SILAC media;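 as to all read-outs here: proteins quantified with MaxQuant, requiring at least two unique peptides and quantification in both label directions, normalized to the mean of proteins from a digested loading control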
G9a and GLP = target: T1, G9a and GLP (Homo sapiens, UniProt Q96KQ7+Q9H9B1); experiment: Triple SILAC pull-down after UNC0638 treatment of 293T cells, DMSO/UNC0638 ratio of protein captured by 3×MBT; assay type: cell-based; parameters: endogenous in cells; host or cells: HEK 293T; details: for Relative to UNC0638 UNC Heavy / Relative to UNC0638 UNC Light: SILAC ratio DMSO/UNC0638 of protein pulled down with 3xMBT; for Relative to UNC0638 UNC Heavy: UNC0638 in heavy SILAC media; for Relative to UNC0638 UNC Light: UNC0638 in light SILAC media; for Relative to UNC0638 Average: average of UNC Light and UNC Heavy experiments;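 as to all read-outs here: mass spectrometry (Q-Exactive) SILAC quantitation, DMSO/UNC0638 ratio computed after subtracting 3×MBTD355N mutant pull-down background, only proteins with at least twofold 3×MBT over mutant signal considered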
T1 sequence (Q96KQ7 2-1210 limits assumed): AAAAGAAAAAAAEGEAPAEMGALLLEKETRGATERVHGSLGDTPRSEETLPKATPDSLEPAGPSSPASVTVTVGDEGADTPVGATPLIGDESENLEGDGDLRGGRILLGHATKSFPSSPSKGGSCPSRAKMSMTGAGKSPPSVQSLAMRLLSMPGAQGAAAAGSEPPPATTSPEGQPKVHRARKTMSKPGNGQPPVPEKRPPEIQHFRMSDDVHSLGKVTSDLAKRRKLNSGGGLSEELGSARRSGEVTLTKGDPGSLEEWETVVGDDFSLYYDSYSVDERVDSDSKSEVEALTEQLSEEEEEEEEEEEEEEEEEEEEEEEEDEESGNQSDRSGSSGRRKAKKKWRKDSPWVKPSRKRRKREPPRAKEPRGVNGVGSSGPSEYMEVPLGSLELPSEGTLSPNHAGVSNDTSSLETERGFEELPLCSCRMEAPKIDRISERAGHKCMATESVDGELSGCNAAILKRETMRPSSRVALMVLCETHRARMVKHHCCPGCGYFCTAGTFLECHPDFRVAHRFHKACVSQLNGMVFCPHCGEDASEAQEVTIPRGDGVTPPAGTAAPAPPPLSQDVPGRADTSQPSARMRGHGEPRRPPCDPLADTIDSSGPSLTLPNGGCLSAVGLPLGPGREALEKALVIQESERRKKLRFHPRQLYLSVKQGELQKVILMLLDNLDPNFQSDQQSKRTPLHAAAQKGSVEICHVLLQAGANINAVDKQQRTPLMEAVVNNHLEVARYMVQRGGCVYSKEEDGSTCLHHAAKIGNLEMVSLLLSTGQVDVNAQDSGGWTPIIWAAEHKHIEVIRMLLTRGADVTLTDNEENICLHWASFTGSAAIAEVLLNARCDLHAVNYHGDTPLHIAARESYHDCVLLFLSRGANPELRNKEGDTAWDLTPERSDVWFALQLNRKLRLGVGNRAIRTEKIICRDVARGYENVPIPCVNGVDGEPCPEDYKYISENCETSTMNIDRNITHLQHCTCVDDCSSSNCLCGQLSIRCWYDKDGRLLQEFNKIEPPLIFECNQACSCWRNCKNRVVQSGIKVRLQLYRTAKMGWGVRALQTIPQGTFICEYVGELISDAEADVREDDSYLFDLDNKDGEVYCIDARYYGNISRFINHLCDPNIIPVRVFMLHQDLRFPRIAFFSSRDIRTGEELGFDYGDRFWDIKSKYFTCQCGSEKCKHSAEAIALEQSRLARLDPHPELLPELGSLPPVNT
T1 sequence (Q9H9B1 2-1298 limits assumed): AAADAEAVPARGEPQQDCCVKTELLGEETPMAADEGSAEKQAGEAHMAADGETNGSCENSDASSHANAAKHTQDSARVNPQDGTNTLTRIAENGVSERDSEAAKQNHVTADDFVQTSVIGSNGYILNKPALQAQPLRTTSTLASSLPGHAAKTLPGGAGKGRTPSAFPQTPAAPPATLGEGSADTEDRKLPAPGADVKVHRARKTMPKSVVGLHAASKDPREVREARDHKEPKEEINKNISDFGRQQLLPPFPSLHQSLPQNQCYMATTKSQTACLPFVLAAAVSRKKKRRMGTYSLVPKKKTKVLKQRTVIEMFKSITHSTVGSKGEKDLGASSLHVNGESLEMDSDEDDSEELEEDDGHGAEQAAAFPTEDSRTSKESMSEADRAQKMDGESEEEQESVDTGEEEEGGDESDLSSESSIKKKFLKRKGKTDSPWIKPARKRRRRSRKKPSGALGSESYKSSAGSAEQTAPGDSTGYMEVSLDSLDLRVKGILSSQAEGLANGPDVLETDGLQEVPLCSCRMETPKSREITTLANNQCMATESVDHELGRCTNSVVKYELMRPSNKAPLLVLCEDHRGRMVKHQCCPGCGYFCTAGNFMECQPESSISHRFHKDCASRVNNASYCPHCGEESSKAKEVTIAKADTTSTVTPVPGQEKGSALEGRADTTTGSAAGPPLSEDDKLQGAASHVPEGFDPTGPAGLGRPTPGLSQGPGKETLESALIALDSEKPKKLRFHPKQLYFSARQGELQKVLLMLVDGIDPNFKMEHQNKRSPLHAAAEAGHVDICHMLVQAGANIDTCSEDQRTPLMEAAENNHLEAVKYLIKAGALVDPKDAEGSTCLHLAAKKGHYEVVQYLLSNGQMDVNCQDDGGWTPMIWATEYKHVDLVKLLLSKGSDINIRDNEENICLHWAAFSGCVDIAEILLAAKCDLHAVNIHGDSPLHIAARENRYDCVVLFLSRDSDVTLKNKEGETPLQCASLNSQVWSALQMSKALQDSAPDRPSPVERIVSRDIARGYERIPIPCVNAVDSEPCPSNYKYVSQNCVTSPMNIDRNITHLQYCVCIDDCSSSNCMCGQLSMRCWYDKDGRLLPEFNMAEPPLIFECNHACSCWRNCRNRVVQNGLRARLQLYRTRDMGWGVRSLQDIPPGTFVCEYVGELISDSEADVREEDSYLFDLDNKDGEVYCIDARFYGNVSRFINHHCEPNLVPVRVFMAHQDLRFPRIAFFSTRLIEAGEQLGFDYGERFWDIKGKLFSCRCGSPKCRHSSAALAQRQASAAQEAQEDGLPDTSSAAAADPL

Molecule | 3xMBT/D355N UNC Heavy (3×MBT domain of L3MBTL1) [log base 2] | 3xMBT/D355N UNC Light (3×MBT domain of L3MBTL1) [log base 2] | Relative to UNC0638 UNC Heavy (G9a and GLP) [log base 2] | Relative to UNC0638 UNC Light (G9a and GLP) [log base 2] | Relative to UNC0638 Average (G9a and GLP) [log base 2]
B1 | 2.49 | 2.67 | 0.08 | 0.22 | 0.15
B2 | 1.71 | 2.00 | 0.14 | 0.16 | 0.15
B3 | 3.34 | 3.56 | 0.11 | 0.20 | 0.15
B4 | 2.94 | 3.39 | 0.08 | 0.22 | 0.15
B5 | 1.89 | 2.26 | 0.24 | 0.06 | 0.15
B6 | 2.44 | 2.00 | 0.21 | 0.08 | 0.14
